From the DeepSol protein solubility set come the findings set out here.

The nature of this series: soluble on expression in E. coli; label from the status in PepcDB or PDB records.
Turning to “MPSTRCAHQMSTKKKAERVDNMIAFLKSAVQAQKEKGAQAEQAPGNAMMTSKLLEIWSVPQSTITEMRLLLTLGADPTPLFKDDFGEKTLADRIDNGSVCEECAEMYERTPIQINRSKKVDGVMALCLDGGGMRGLVSVVCLLYASRRLLGDETLPNLFDWFIGTSTGSMLALSMVNKISISECFFQYWDMKSQIFLRGSTVKRLLGDQVAVQTKNIDKVLGDCFPTQTLQECPTRLTIPALDISTAPARLHVFRNYSFTKPFGAPLNEDQDVLFREAARASSAAPTYFEPFIYGNKVLVDGSFVANYPLNVLFKEYDSFSKHQQPIHLAGVLSIGTGEPALAERKYKSGKSIRAKAMNIGHLSTLILEQVVGQDLTAVEMAQDRCHAHNIPFNRLSPKGISVRIDQIDDSKLMDMIWTTLIYLTENVHEIDQLGEMIYKLKSDPTERKRRSNTVL”, the “soluble on expression in E. coli” value is “not soluble”.
For “MSLKRYSGFLIDLDGTMYRGSEVITEAVAFVKQLEKQSASYLFVTNNSTKSPETVATLLKSMDVPATKEHVFTSSMAMASYLTRTKEFVRAFVIGEEGLLESLKESGMMVSEDEQPDYVVMGLDRAISYEKLAKAATYVRQGAKFFITNGDAALPTEKGLMPGNGSLAAVVATTTGVKPFVVGKPSPIIIEEALKRLGTTKEETLLIGDNYDTDILAGIHAGIDTLLVHTGVTTKEALKQKEAQPTYTCESLADWQRSIEEEGHHHHHH”, the “soluble on expression in E. coli” value is “soluble”.
To “MRLPIFLLALSSASIVFSLDPVPEEYANVPKEFFEKFQAAIKSGDPVAVVDLFAPDDMLPVSGMIEAAQGIIKSFESYPTGIIERVRYEYGVIQINVRYYPNTPLLSKKTTIFKIKYENKWKGWTMVHFSDWM” belongs “not soluble”.
For “MGSDKIHHHHHHMSYDLPRLTPDKDFKVPSACGVSGIMNTSGKRFSGSVIVESMALMRERGNGLGAGYAAYGIYPELKDLYCFHMLYDSDLDKKNAEEYIKDHYEIIESEPIPTRKNPHIKEVHILWRYFLKPKFIPEDMSEEDFVVSTVMFINEKINGAFVMSSGKNMGVFKGVGFPEDIADFYRIDEYKGYIWTAHNRFPTNTVGWWGGAHPFGILDWTVVHNGEISSYGINRRFLEAYGYKCTLMTDTEVVAYLVDLFMRRFGYSPQLTAKILAAPLWKDIDLMPEEERKLYTALRMNYGGALLNGPFAIIVANNNMMMGLNDRIKLRPLVAATKDDFLYIASEESAIRVVCPEPDEVWAPKAGDPVVGVLKSARKTQVVLEGENG”, the “soluble on expression in E. coli” value is listed as “not soluble”.
Regarding “MLYKRKNIKFKNFVDLHKNLSLSKLFDFYSVFEGFEKLNILNFEDDVFTNIERILLDDYLKIKSYFALDETSSYALTLLAKNNRKRFSINRKIQHFKALSTLKYLLETGIIKLEYSKEAKKIKDKRQKIKKELRSYVVQDKIIFSNHFTRFFFYFLKPNEKLILQNRYKEVLECIKEKFELYQSFCFEQLSRELLEKKFNINGVQSYWDKNLELDLYYQDENLCFVGEVKFKNKKICKNILNLLKSKAKSLNLAPNYYIIISKNGFSKEIDKICEQNLLLLDLNDFKILLEELEHHHHHH”, the “soluble on expression in E. coli” value is given as “not soluble”.
Under “GPGSMKKCWVFDCAAPGLYCEPRRLLKPFSTDSILDAAGRAFETVEDGLKATTWRTHHAFSARCGLTSVTRSDSTTCGKGVEESSVSRSPEDYREWHADFHLRSPSAEPHVLLSVAPHYLPSRGSGNADDGRKMEVVGSRGRWLKPWRPQTAEEQAAYDAAVLGTPLIWEEPLVLSLDCTADGVFLWSEDHGIYGEKVANRCFERHSSDAGDDSAEFKQEAFLRFRWSEQPPAQTSSVGSGRHEMKEEHVESPNVSKCGELRVFRGQRTKVEAEEPHVERISYEEADVDAGSGGFLWQSVLHRIISCGPVPKEVYFAPYVTLMESGDEVSLL” stands “not soluble”; under “MGSDKIHHHHHHMFDAIGWDEIKNFEYMKQSIIAKIEHACASHEIPLHTHPKGQLILALHGYVTCEVSAKMWMVPTHSAIWIPAYKVHSNRASDNAKLCHLFIDSNMDGMPQNTCTLAISPLVKELMCELASRDQHYRSNSKTARLAQVLHDQLIDMPIQHLDFVLSKNMVIQAMSQQLISQPHDRKTLPQWAEQFALTERTLARLIKKETGMTFGKWRTQLHIITSLQALSDKQSVQQVSELLGYESVSAFITMFKKVMKTSPMKYMNELNAY”, “not soluble”.
To “MSLELPFSNQSIIPAAHNQKDMEKILELDLTYMVMLETHVAQLKALVKYAQAGGKKVLLHADLVNGLKNDDYAIDFLCTEICPDGIISTRGNAIMKAKQHKMLAIQRLFMIDSSAYNKGVALIQKVQPDCIELLPGIIPEQVQKMTQKLHIPVIAGGLIETSEQVNQVIASGAIAVTTSNKHLWEGHHHHHH” belongs “soluble”.
